Assay results from patent US20240360228A1 (BIOLEGEND, published 2024).

Columns and labels:
[1] = target: T1, human CCR8 (human, UniProt P51685 1-355); assay: flow blocking, PBMC CCR8+CD3+; competitor PE-AB12
T1 construct: Native CCR8 on human PBMC (CCR8+ CD3+ or CCR8+ CD4+ lymphocytes); also called chemokine (C-C motif) receptor 8
Protocol: (§1) For blocking studies, 100 μL of the cell suspension were incubated with 10 μg purified isotype control, AB1, AB2, AB3, AB4, AB5, AB8, AB9, AB10, AB11, AB12, AB13, AB14, AB15, and Commercial ABI antibodies, or isotype control, as blocking agents.
(§2) After incubation with the blocking agent, the cells were incubated with 0.25 μg of the indicated PE-conjugated antibody plus anti-human CD4 APC or anti-human CD3 for another 15 minutes in the dark and then washed 2 times with Cell Staining Buffer, and acquired in a FACSCanto II flow cytometer (BD Biosciences); the data was analyzed using FCS Express (De Novo Software); MFI correspond to the CCR8+ CD4+ lymphocytes or CCR8+ CD3+ lymphocytes.
(§3) Percentage original MFI was calculated by dividing the MFI of samples blocked with AB1, AB2, AB3, AB4, AB5, AB6, AB7, AB8, AB9, AB10, AB11, AB12, AB13, AB14, AB15, and Commercial ABI antibodies, by the MFI of samples blocked with the corresponding isotype control. This value was subtracted from 100 to get a blocking percentage. The formula is shown below: […]

[2] = target: T1, human CCR8; assay: flow blocking, PBMC CCR8+CD4+; competitor PE-AB12
Protocol: as §1, §2, §3

[3] = target: T1, human CCR8; assay: flow blocking, PBMC CCR8+CD4+; competitor PE-AB5
Protocol: as §1, §2, §3

[4] = target: T1, human CCR8; assay: flow blocking, PBMC CCR8+CD3+; competitor PE-AB15
Protocol: as §1, §2, §3

[5] = target: T1, human CCR8; assay: flow blocking, PBMC CCR8+CD3+; competitor PE-AB7
Protocol: as §1, §2, §3

[6] = target: T1, human CCR8; assay: flow blocking, PBMC CCR8+CD4+; competitor PE-AB14
Protocol: as §1, §2

[7] = target: T1, human CCR8; assay: flow blocking, PBMC CCR8+CD4+; competitor PE-AB2
Protocol: as §1, §2, §3

[8] = target: T1, human CCR8; assay: flow blocking, PBMC CCR8+CD3+; competitor PE-AB10
Protocol: as §1, §2, §3

[9] = target: T1, human CCR8; assay: flow blocking, PBMC CCR8+CD4+; competitor PE-433H
Protocol: as §1, §2

[10] = target: T1, human CCR8; assay: flow blocking, PBMC CCR8+CD3+; competitor PE-AB14
Protocol: as §1, §2, §3

[11] = target: T1, human CCR8; assay: flow blocking, PBMC CCR8+CD4+; competitor PE-AB11
Protocol: as §1, §2, §3

[12] = target: T1, human CCR8; assay: flow blocking, PBMC CCR8+CD3+; competitor PE-AB8
Protocol: as §1, §2, §3

[13] = target: T1, human CCR8; assay: flow blocking, PBMC CCR8+CD3+; competitor PE-AB6
Protocol: as §1, §2, §3

[14] = target: T1, human CCR8; assay: flow blocking, PBMC CCR8+CD4+; competitor PE-AB1
Protocol: as §1, §2, §3

[15] = target: T1, human CCR8; assay: flow blocking, PBMC CCR8+CD3+; competitor PE-AB5
Protocol: as §1, §2, §3

[16] = target: T1, human CCR8; assay: flow blocking, PBMC CCR8+CD4+; competitor PE-AB15
Protocol: as §1, §2, §3

[17] = target: T1, human CCR8; assay: flow blocking, PBMC CCR8+CD3+; competitor PE-L263G8
Protocol: as §1, §2, §3

[18] = target: T1, human CCR8; assay: flow blocking, PBMC CCR8+CD4+; competitor PE-AB13
Protocol: as §1, §2

[19] = target: T1, human CCR8; assay: flow blocking, PBMC CCR8+CD3+; competitor PE-AB11
Protocol: as §1, §2, §3

[20] = target: T1, human CCR8; assay: flow blocking, PBMC CCR8+CD3+; competitor PE-AB13
Protocol: as §1, §2, §3

[21] = target: T1, human CCR8; assay: flow blocking, PBMC CCR8+CD4+; competitor PE-AB4
Protocol: as §1, §2, §3

[22] = target: T1, human CCR8; assay: flow blocking, PBMC CCR8+CD3+; competitor PE-433H
Protocol: as §1, §2, §3

[23] = target: T1, human CCR8; assay: flow blocking, PBMC CCR8+CD4+; competitor PE-AB10
Protocol: as §1, §2, §3

[24] = target: T1, human CCR8; assay: flow blocking, PBMC CCR8+CD4+; competitor PE-AB6
Protocol: as §1, §2

[25] = target: T1, human CCR8; assay: flow blocking, PBMC CCR8+CD4+; competitor PE-AB3
Protocol: as §1, §2, §3

T1 sequence (P51685 whole entry): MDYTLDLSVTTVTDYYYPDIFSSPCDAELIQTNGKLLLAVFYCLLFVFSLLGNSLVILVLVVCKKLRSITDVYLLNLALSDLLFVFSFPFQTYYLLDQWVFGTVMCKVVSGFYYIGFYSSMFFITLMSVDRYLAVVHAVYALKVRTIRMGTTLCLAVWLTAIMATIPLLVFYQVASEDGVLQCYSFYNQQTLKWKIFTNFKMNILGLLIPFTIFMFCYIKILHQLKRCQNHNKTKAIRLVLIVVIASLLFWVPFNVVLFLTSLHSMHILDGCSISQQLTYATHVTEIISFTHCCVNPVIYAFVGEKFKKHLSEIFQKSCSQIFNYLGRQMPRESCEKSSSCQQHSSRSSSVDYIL

B1: AB10 (antibody, V domains shown)
VH: EVQLVETGGGLVQPKGSLKLSCAVSGFTFKTNAMNWVRQAPGKGLEWVARIRSKSNKYATYYADSVKDRFTISRDDSQSMLYLQMNNLKTEDTAMYYCVRGSEMGYYYAMDYWGQGTSVTVSS
VL: DIVMTQAAPSVPVTPGESVSISCRSSKSLLHSNGNTYLYWFLQRPGQSPQLLIYRMSNLASGVPDRFSGSGSGTAFTLRISRVEAEDVGVYYCMQHLEYPFTFGGGTKLEIK
notes: Hybridoma monoclonal; also called antibody 10; clone 10
- % Blocking [1]: 47.6%
- MFI [1]: 536
- % Blocking [2]: 98.9%
- % Positive cells [2]: 0.02%
- % Blocking [3]: -17.8%
- % Positive cells [3]: 2.38%
- % Blocking [4]: 43.3%
- MFI [4]: 487
- % Blocking [5]: 52.1%
- MFI [5]: 559
- % Blocking [6]: 89.2%
- % Positive cells [6]: 0.14%
- % Blocking [7]: -40.2%
- % Positive cells [7]: 2.3%
- % Blocking [8]: 30.7%
- MFI [8]: 552
- % Blocking [9]: 28.4%
- % Positive cells [9]: 1.26%
- % Blocking [10]: 38.9%
- MFI [10]: 528
- % Blocking [11]: 98.5%
- % Positive cells [11]: 0.03%
- % Blocking [12]: 51.6%
- MFI [12]: 575
- % Blocking [13]: -27%
- MFI [13]: 1170
- % Blocking [14]: -47.1%
- % Positive cells [14]: 2.28%
- % Blocking [15]: -8.37%
- MFI [15]: 1070
- % Blocking [16]: 88.4%
- % Positive cells [16]: 0.15%
- % Blocking [17]: 10.2%
- MFI [17]: 605
- % Blocking [18]: 97.5%
- % Positive cells [18]: 0.05%
- % Blocking [19]: 55.2%
- MFI [19]: 416
- % Blocking [20]: 43.6%
- MFI [20]: 499
- % Blocking [21]: -38.8%
- % Positive cells [21]: 2.47%
- % Blocking [22]: 32.1%
- MFI [22]: 602
- % Blocking [23]: 93.2%
- % Positive cells [23]: 0.1%
- % Blocking [24]: -7.92%
- % Positive cells [24]: 2.18%
- % Blocking [25]: -50.9%
- % Positive cells [25]: 2.58%

B2: AB13 (antibody, V domains shown)
VH: EVQLVETGGGLVQPKGSLKLSCAASGFTFNAYAMNWVRQAPGKGLEWVARIRTKSNNYATYYADSVKDRFTISRDDSQTMLYLQMNNLKTEDTAMYYCVRDRATVTTGRAMDYWGQGTSVTVSS
VL: DIVMTQAAPSLPVTPGESVSISCRSSKSLLHSNGNTYLYWFLQRAGQSPQLLIYRMSNLASGVPDRFSGSGSGTAFTLRISRVEAEDVGVYYCMQHLEYPFTFGSGTKLEIK
notes: Hybridoma monoclonal; also called antibody 13; clone 13
- % Blocking [1]: 21.8%
- MFI [1]: 800
- % Blocking [2]: 99.4%
- % Positive cells [2]: 0.01%
- % Blocking [3]: -7.92%
- % Positive cells [3]: 2.18%
- % Blocking [4]: 30%
- MFI [4]: 601
- % Blocking [5]: 46.1%
- MFI [5]: 630
- % Blocking [6]: 99.2%
- % Positive cells [6]: 0.01%
- % Blocking [7]: -33.5%
- % Positive cells [7]: 2.19%
- % Blocking [8]: 8.91%
- MFI [8]: 726
- % Blocking [9]: 34.7%
- % Positive cells [9]: 1.15%
- % Blocking [10]: 30.8%
- MFI [10]: 598
- % Blocking [11]: 98%
- % Positive cells [11]: 0.04%
- % Blocking [12]: 44.1%
- MFI [12]: 664
- % Blocking [13]: -17.2%
- MFI [13]: 1080
- % Blocking [14]: -36.8%
- % Positive cells [14]: 2.12%
- % Blocking [15]: -14.7%
- MFI [15]: 1130
- % Blocking [16]: -34.9%
- % Positive cells [16]: 1.74%
- % Blocking [17]: 11.8%
- MFI [17]: 594
- % Blocking [18]: 95.5%
- % Positive cells [18]: 0.09%
- % Blocking [19]: 5.33%
- MFI [19]: 878
- % Blocking [20]: 24.6%
- MFI [20]: 668
- % Blocking [21]: -18.5%
- % Positive cells [21]: 2.11%
- % Blocking [22]: 8.18%
- MFI [22]: 814
- % Blocking [23]: 96%
- % Positive cells [23]: 0.06%
- % Blocking [24]: 1.49%
- % Positive cells [24]: 1.99%
- % Blocking [25]: -19.3%
- % Positive cells [25]: 2.04%

B3: AB11 (antibody, V domains shown)
VH: EVQLVESGGGLVQPKGSLKLSCAASGFAFNTYAMNWVRQAPGKGLEWIARLRSKSNFYATYYADSVKDRFTISRDDSQSMLYLQMNNLKTEDTAVYYCVRGRELGPSYAMDYWGQGTSVTVSS
VL: DIVMTQAAPSVPVTPGESVSISCRSSKSLLHSNGNTYLYWFLQRPGQSPQLLIYRMSNLASGVPDRFSGSGSGTAFTLRISRVEAEDVGVYYCMQHLEYPYTFGGGTKLEIK
notes: Hybridoma monoclonal; also called antibody 11; clone 11
- % Blocking [1]: 48%
- MFI [1]: 531
- % Blocking [2]: 98.3%
- % Positive cells [2]: 0.03%
- % Blocking [3]: -27.7%
- % Positive cells [3]: 2.58%
- % Blocking [4]: 52%
- MFI [4]: 412
- % Blocking [5]: 13.1%
- MFI [5]: 1020
- % Blocking [6]: 99.2%
- % Positive cells [6]: 0.01%
- % Blocking [7]: -22.6%
- % Positive cells [7]: 2.01%
- % Blocking [8]: 34.4%
- MFI [8]: 522
- % Blocking [9]: 38.6%
- % Positive cells [9]: 1.08%
- % Blocking [10]: 41.4%
- MFI [10]: 506
- % Blocking [11]: 96.9%
- % Positive cells [11]: 0.06%
- % Blocking [12]: 17.8%
- MFI [12]: 977
- % Blocking [13]: -8.93%
- MFI [13]: 1010
- % Blocking [14]: -31.6%
- % Positive cells [14]: 2.04%
- % Blocking [15]: -2.94%
- MFI [15]: 1020
- % Blocking [16]: 93.8%
- % Positive cells [16]: 0.08%
- % Blocking [17]: 36.6%
- MFI [17]: 427
- % Blocking [18]: 96.5%
- % Positive cells [18]: 0.07%
- % Blocking [19]: 42.7%
- MFI [19]: 532
- % Blocking [20]: 34.6%
- MFI [20]: 579
- % Blocking [21]: -27%
- % Positive cells [21]: 2.26%
- % Blocking [22]: 43.3%
- MFI [22]: 503
- % Blocking [23]: -2.7%
- % Positive cells [23]: 1.52%
- % Blocking [24]: -5.45%
- % Positive cells [24]: 2.13%
- % Blocking [25]: -26.3%
- % Positive cells [25]: 2.16%
